Test results published in article PMC5093072 (Structure (London, England : 1993), 2016).

B1: glutathionylated T2D/A4V-SOD1 (GS-T2D/A4V-SOD1), C111-glutathionylation enriched species (enzyme)
chain: not shown
modifications: glutathionylation at C111 (enriched species); for SPR: biotinylated on one subunit (EZ-link NHS-LC-LC-biotin)
B2: double mutant T2D/A4V-SOD1, unmodified (enzyme)
chain: not shown
modifications: for SPR: biotinylated on one subunit (EZ-link NHS-LC-LC-biotin)

How the values were obtained:
SPR = biological target: the molecule itself; assay: SPR
SEC = biological target: the molecule itself; assay: SEC

Protein | koff (SPR) [s⁻¹] | stoichiometry N (SEC)
B1 | 0.000161 | 2
B2 | 0.000156 | 2
